Results as given in patent publication US20220000998A1 (STRIKE PHARMA, published 2022).

Molecular target: UU-30
Assay: cell-based or functional assay

Binder | t1/2 (min) of UU-30 in mouse plasma (LC-MS/MS) [min]
X-SM083-bi-12 (bispecific antibody) heavy: EVQLLESGGGLVQPGGSLRLSCAASGFTFSSYAMSWVRQAPGKGLEWVSGIGGSSSYTSYADSVKGRFTISRDNSKNTLYLQMNSLRAEDTAVYYCARYYSYHMDYWGQGTLVTVSSASTKGPSVFPLAPSSRSTSESTAALGCLVKDYFPEPVTVSWNSGALTSGVHTFPAVLQSSGLYSLSSVVTVPSSNFGTQTYTCNVDHKPSNTKVDKTVERKCCVECPPCPAPPVAGPSVFLFPPKPKDTLMISRTPEVTCVVVDVSHEDPEVQFNWYVDGVEVHNAKTKPREEQFNSTFRVVSVLTVVHQDWLNGKEYKCKVSNKGLPAPIEKTISKTKGQPREPQVYTLPPSREEMTKNQVSLTCLVKGFYPSDIAVEWESNGQPENNYKTTPPMLDSDGSFFLYSKLTVDKSRWQQGNVFSCSVMHEALHNHYTQKSLSLSPGKGGGGSGGGGSQVQLQQPGAELVMPGASVNLSCKASGYTFTDYWMHWVKQRPGQGLEWIGEIDPSDNFSNLNQNFRGKATLTVDKSSRTAFLQLSSLTSEDSAVYYCAVEDYWGQGTTLTVSSGGGGSGGGGSGGGGSGGGGSDIVMTQATPSVLVTPGEAVSISCRASRSLLHSNGITYLYWFLQRPGQSPQVLIYRMSNLVSGVPDRFSGSGSGTAFTLRISRVEAEDVGVYYCMQHLEFPYTFGGGTKLEIK light: DIQMTQSPSSLSASVGDHVTITCRASQSISSYLNWYQQKPGKAPKLLIYAASSLQSGVPSRFSGSGSGTDFTLTISSLQPEDFATYYCQQYGSAPPTFGQGTKLEIK | 424
X-SM083-bi-9 (bispecific antibody) heavy: not shown light: DIQMTQSPSSLSASVGDHVTITCRASQSISSYLNWYQQKPGKAPKLLIYAASSLQSGVPSRFSGSGSGTDFTLTISSLQPEDFATYYCQQYGSAPPTFGQGTKLEIK | 1340
